B1: Cell division control protein 13 (Saccharomyces cerevisiae), P32797 (parent)
chain: MDTLEEPECPPHKNRIFVSSSKDFEGYPSKAIVPVQFVALLTSIHLTETKCLLGFSNFERRGDQSQEDQYLIKLKFKDRGSERLARITISLLCQYFDIELPDLDSDSGASPTVILRDIHLERLCFSSCKALYVSKHGNYTLFLEDIKPLDLVSVISTISTKSTNSSKHSSSELISECDLNNSLVDIFNNLIEMNRDEKNRFKFVKLIHYDIELKKFVQDQQKVLSQKSKAAAINPFFVPNRLGIPYIESQNEFNSQLMTLNVDEPTTDISNMGEEMHDSADPIEDSDSSTTSSTGKYFSSKSYIQSQTPERKTSVPNNWHDDDSGSKRKRKLSFHSPNASSIRKAISYEQLSLASVGSVERLEGKIVGMNPPQFASINEFKYCTLKLYFTQLLPNVPDKVLVPGVNCIEIVIPTRERICELFGVLNCQSDKISDILLLEKPDRISVEVERILWDNDKTASPGMAVWSLKNISTDTQAQAQVQVPAQSSASIDPSRTRMSKMARKDPTIEFCQLGLDTFETKYITMFGMLVSCSFDKPAFISFVFSDFTKNDIVQNYLYDRYLIDYENKLELNEGFKAIMYKNQFETFDSKLRKIFNNGLRDLQNGRDENLSQYGIVCKMNIKVKMYNGKLNAIVRECEPVPHSQISSIASPSQCEHLRLFYQRAFKRIGESAISRYFEEYRRFFPIHRNGSHLAKLRFDEVKHEPKKSPTTPALAEHIPDLNADVSSFDVKFTDISSLLDSSARLPRPQQTHKSNTLYSCEGRIIAIEYHASDLCFHITNELPLLQTRGLAPERVLQLHIITSKNFAYFFNRSSAYLQRQPLEEKYTQLAQFLGHSFKFNITSSLTLFPDTTVALQIWCPIECTFRELQQQLAHPKVAAAPDSGSLDCAINATVNPLRLLAAQNGVTVKKEEDNDDDAGAVPTS

Variants of: B1
Details: with cdk1_yeast CDC28, P00546
Sequence of cdk1_yeast CDC28, P00546 (P00546 whole entry, looked up): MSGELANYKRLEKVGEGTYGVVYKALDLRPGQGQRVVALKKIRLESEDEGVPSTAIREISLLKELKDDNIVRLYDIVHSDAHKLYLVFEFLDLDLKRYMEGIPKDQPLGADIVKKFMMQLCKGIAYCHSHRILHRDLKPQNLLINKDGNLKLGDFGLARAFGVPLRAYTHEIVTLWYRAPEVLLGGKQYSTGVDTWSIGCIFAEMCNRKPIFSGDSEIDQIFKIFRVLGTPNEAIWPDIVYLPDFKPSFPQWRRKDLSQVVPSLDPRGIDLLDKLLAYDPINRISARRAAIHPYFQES

| effect of a mutation on the interaction | Variant |
| --- | --- |
| decreasing interaction | T308A |
| disrupting interaction | T308A;S336A |
